Key:
Assay in all cases: cell-based or functional assay
[1] = biological target: HIV-1 Env of isolate MGRM-C-002 (subtype C) (HIV-1)
[2] = biological target: HIV-1 Env of isolate MGRM-C-027 (subtype C) (HIV-1)
[3] = biological target: HIV-1 Env of isolate MGRM-C-015 (subtype C) (HIV-1)
[4] = biological target: HIV-1 Env of isolate MGRM-C-028 (subtype C) (HIV-1)
[5] = biological target: HIV-1 Env of isolate MGRM-C-013 (subtype C) (HIV-1)
[6] = biological target: HIV-1 Env of isolate MGRM-G-004 (subtype G), on pseudovirus (HIV-1)
[7] = biological target: HIV-1 Env of isolate MGRM-C-006 (subtype C) (HIV-1)
[8] = biological target: HIV-1 Env of isolate 97ZA012 (subtype C) (HIV-1)
[9] = biological target: HIV-1 Env of isolate MGRM-G-015 (subtype G), on pseudovirus (HIV-1)
[10] = biological target: HIV-1 Env of isolate MGRM-G-025 (subtype G), on pseudovirus (HIV-1)
[11] = biological target: HIV-1 Env of isolate MGRM-C-025 (subtype C) (HIV-1)
[12] = biological target: HIV-1 Env of isolate MGRM-G-019 (subtype G), on pseudovirus (HIV-1)
[13] = biological target: HIV-1 Env of isolate MGRM-G-009 (subtype G), on pseudovirus (HIV-1)
[14] = biological target: HIV-1 Env of isolate MGRM-C-012 (subtype C) (HIV-1)
[15] = biological target: HIV-1 Env of isolate MGRM-C-017 (subtype C) (HIV-1)
[16] = biological target: HIV-1 Env of isolate 93MW959 (subtype C) (HIV-1)
[17] = biological target: HIV-1 Env of isolate MGRM-G-028 (subtype G), on pseudovirus (HIV-1)
[18] = biological target: HIV-1 Env of isolate MGRM-G-013 (subtype G), on pseudovirus (HIV-1)
[19] = biological target: HIV-1 Env of isolate MGRM-G-014 (subtype G), on pseudovirus (HIV-1)
[20] = biological target: HIV-1 Env of isolate MGRM-C-019 (subtype C) (HIV-1)
[21] = biological target: HIV-1 Env of isolate MGRM-C-008 (subtype C) (HIV-1)
[22] = biological target: HIV-1 Env of isolate 98IN022 (subtype C) (HIV-1)
[23] = biological target: HIV-1 Env of isolate MGRM-C-020 (subtype C) (HIV-1)
[24] = biological target: HIV-1 JR-CSF Env D477A (HIV-1 JR-CSF) (UniProt P20871)
[25] = biological target: HIV-1 Env of isolate MGRM-C-023 (subtype C) (HIV-1)
[26] = biological target: HIV-1 Env of isolate MGRM-G-006 (subtype G), on pseudovirus (HIV-1)
[27] = biological target: HIV-1 Env of isolate MGRM-C-026 (subtype C) (HIV-1)
[28] = biological target: HIV-1 Env of isolate MGRM-C-024 (subtype C) (HIV-1)
[29] = biological target: HIV-1 Env of isolate MGRM-C-022 (subtype C) (HIV-1)
[30] = biological target: HIV-1 Env of isolate MGRM-G-001 (subtype G), on pseudovirus (HIV-1)
[31] = biological target: HIV-1 Env of isolate MGRM-C-001 (subtype C) (HIV-1)
[32] = biological target: HIV-1 Env of isolate MGRM-G-024 (subtype G), on pseudovirus (HIV-1)
[33] = biological target: HIV-1 Env of isolate MGRM-G-017 (subtype G), on pseudovirus (HIV-1)
[34] = biological target: HIV-1 Env of isolate MGRM-C-009 (subtype C) (HIV-1)
[35] = biological target: aMLV envelope, on pseudovirus (negative control)
[36] = biological target: HIV-1 Env of isolate MGRM-G-011 (subtype G), on pseudovirus (HIV-1)
[37] = biological target: HIV-1 Env of isolate MGRM-G-016 (subtype G), on pseudovirus (HIV-1)
[38] = biological target: HIV-1 Env of isolate MGRM-C-005 (subtype C) (HIV-1)
[39] = biological target: HIV-1 Env of isolate MGRM-C-010 (subtype C) (HIV-1)
[40] = biological target: HIV-1 Env of isolate MGRM-G-027 (subtype G), on pseudovirus (HIV-1)
[41] = biological target: HIV-1 Env of isolate MGRM-C-007 (subtype C) (HIV-1)
[42] = biological target: HIV-1 Env of isolate MGRM-C-004 (subtype C) (HIV-1)
[43] = biological target: HIV-1 Env of isolate MGRM-C-014 (subtype C) (HIV-1)
[44] = biological target: HIV-1 JR-CSF Env R476A (HIV-1 JR-CSF) (UniProt P20871)

B1: PGT-123 (antibody, V domains shown)
VH: QLHLQESGPGLVKPPETLSLTCSVSGASINDAYWSWIRQSPGKRPEWVGYVHHSGDTNYNPSLKRRVTFSLDTAKNEVSLKLVDLTAADSATYFCARALHGKRIYGIVALGELFTYFYMDVWGKGTAVTVSS
VL: SSMSVSPGETAKISCGKESIGSRAVQWYQQKPGQPPSLIIYNNQDRPAGVPERFSASPDFRPGTTATLTITNVDAEDEADYYCHIYDARGGTNWVFDRGTTLTVL
IC50 (µg/mL), pseudovirus neutralization [1]: 0.01 µg/mL
IC50 (µg/mL), pseudovirus neutralization [2]: 0.02 µg/mL
IC50 (µg/mL), pseudovirus neutralization [3]: 13.1 µg/mL
IC50 (µg/mL), pseudovirus neutralization [4]: 0.402 µg/mL
IC50 (µg/mL), pseudovirus neutralization [5]: 14.9 µg/mL
IC50 (µg/mL), neutralization of pseudovirus [6]: 0.181 µg/mL
IC50 (µg/mL), pseudovirus neutralization [7]: 0.021 µg/mL
IC50 (µg/mL), pseudovirus neutralization [8]: 0.002 µg/mL
IC50 (µg/mL), neutralization of pseudovirus [9]: > 50 µg/mL
IC50 (µg/mL), neutralization of pseudovirus [10]: 0.046 µg/mL
IC50 (µg/mL), pseudovirus neutralization [11]: 13.3 µg/mL
IC50 (µg/mL), neutralization of pseudovirus [12]: 0.008 µg/mL
IC50 (µg/mL), neutralization of pseudovirus [13]: 33.5 µg/mL
IC50 (µg/mL), pseudovirus neutralization [14]: 0.605 µg/mL
IC50 (µg/mL), pseudovirus neutralization [15]: 0.01 µg/mL
IC50 (µg/mL), pseudovirus neutralization [16]: 0.011 µg/mL
IC50 (µg/mL), neutralization of pseudovirus [17]: 0.008 µg/mL
IC50 (µg/mL), neutralization of pseudovirus [18]: 3.97 µg/mL
IC50 (µg/mL), neutralization of pseudovirus [19]: 0.005 µg/mL
IC50 (µg/mL), pseudovirus neutralization [20]: > 50 µg/mL
IC50 (µg/mL), pseudovirus neutralization [21]: 0.011 µg/mL
IC50 (µg/mL), pseudovirus neutralization [22]: 0.011 µg/mL
IC50 (µg/mL), pseudovirus neutralization [23]: > 50 µg/mL
Fold IC50 increase relative to wild-type [24]: 2.3 fold
IC50 (µg/mL), pseudovirus neutralization [25]: 0.011 µg/mL
IC50 (µg/mL), neutralization of pseudovirus [26]: > 50 µg/mL
IC50 (µg/mL), pseudovirus neutralization [27]: 0.001 µg/mL
IC50 (µg/mL), pseudovirus neutralization [28]: 0.195 µg/mL
IC50 (µg/mL), pseudovirus neutralization [29]: 0.01 µg/mL
IC50 (µg/mL), neutralization of pseudovirus [30]: 0.009 µg/mL
IC50 (µg/mL), pseudovirus neutralization [31]: 42.4 µg/mL
IC50 (µg/mL), neutralization of pseudovirus [32]: 0.032 µg/mL
IC50 (µg/mL), neutralization of pseudovirus [33]: 0.026 µg/mL
IC50 (µg/mL), pseudovirus neutralization [34]: > 50 µg/mL
IC50 (µg/mL), neutralization of pseudovirus [35]: > 50 µg/mL
IC50 (µg/mL), neutralization of pseudovirus [36]: 14.9 µg/mL
IC50 (µg/mL), neutralization of pseudovirus [37]: > 50 µg/mL
IC50 (µg/mL), pseudovirus neutralization [38]: 0.012 µg/mL
IC50 (µg/mL), pseudovirus neutralization [39]: > 50 µg/mL
IC50 (µg/mL), neutralization of pseudovirus [40]: 0.182 µg/mL
IC50 (µg/mL), pseudovirus neutralization [41]: 0.547 µg/mL
IC50 (µg/mL), pseudovirus neutralization [42]: 0.009 µg/mL
IC50 (µg/mL), pseudovirus neutralization [43]: 1 µg/mL
Fold IC50 increase relative to wild-type [44]: 2 fold
